Test results published in patent US20160304858A1.
Primed or numbered codes have the meaning given here. Where no end group is shown, it is not given here. [ ]: non-standard residue; d: D form. The star is where a group is joined. Hpra′ = its azide, alkyne or alkene has reacted where a group follows in round brackets; maleimide‑biotin = maleimide-biotin reagent joined to deprotected Cys; Man9″ = Man9 glycan attached to Hpg by CuAAC click with Man9-azide; Man9(3) = Man9-azide click-glycosylated onto Hpg; For = O=C*

B1: glycopeptide 10F6 (Fixed library, round 10) (peptide)
peptide: For-[Hpra′](Man9(3))L[Hpra′](Man9(3))FIRIYPTR[Hpra′](Man9(3))QYVYHAPLLT[Hpra′](Man9(3))VR[Hpra′](Man9(3))SPTGPLIGSGSLGHHHHHHRDYKDDDDK
B2: glycopeptide 10F2 (Fixed library, round 10), ribosomally translated (peptide)
peptide: For-[Hpra′](Man9″)HPYNTSRTSA[Hpra′](Man9″)[Hpra′](Man9″)AALK[Hpra′](Man9″)QVTD[Hpra′](Man9″)YALALFHRILGSGSLGHHHHHHRDYKDDDDK
B3: glycopeptide 10V8 (Variable library, round 10) (peptide)
peptide: For-[Hpra′](Man9(3))VLPTIISTNVNPFR[Hpra′](Man9(3))LSIPTYTYL[Hpra′](Man9(3))PITWGEIGSGSLGHHHHHHRDYKDDDDK
B4: glycopeptide 10V9 (Variable library, round 10) (peptide)
peptide: For-[Hpra′](Man9(3))TSIPYTYLNRSLWTNYRVNSWS[Hpra′](Man9(3))SKNVNV[Hpra′](Man9(3))PLGSGSLGHHHHHHRDYKDDDDK
B5: glycopeptide 10F9 (Fixed library, round 10) (peptide)
peptide: For-[Hpra′](Man9(3))RSTLNSLEYR[Hpra′](Man9(3))QYATEDPRIR[Hpra′](Man9(3))ASIPYTYWWPGSGSLGHHHHHHRDYKDDDDK
B6: glycopeptide 10F8 (Fixed library, round 10) (peptide)
peptide: For-[Hpra′](Man9(3))LLK[Hpra′](Man9(3))VDQSRL[Hpra′](Man9(3))PVPGIGVTLH[Hpra′](Man9(3))RSIPYSYLPIGSGSLGHHHHHHRDYKDDDDK
B7: glycopeptide 10F3 (Fixed library, round 10) (peptide)
peptide: For-[Hpra′](Man9(3))DTLHLKQIGG[Hpra′](Man9(3))PNCITQQDVR[Hpra′](Man9(3))TSIPYTYTWPGSGSLGHHHHHHRDYKDDDDK
B8: glycopeptide 10V1 (Variable library, round 10) (peptide)
peptide: For-[Hpra′](Man9(3))ATKTNCKREKT[Hpra′](Man9(3))DNHVTI[Hpra′](Man9(3))RSIPWYTYRWLPNGSGSLGHHHHHHRDYKDDDDK
B9: glycopeptide 10F5-C10,25S (peptide)
peptide: For-[Hpra′](Man9(3))SPHLPVLLSK[Hpra′](Man9(3))VLNDGRRIVQ[Hpra′](Man9(3))SSELP[Hpra′](Man9(3))VRRSGSGSLGHHHHHHRDYKDDDDK
B10: glycopeptide 10F5 (Fixed library, round 10) (peptide)
peptide: For-[Hpra′](Man9(3))SPHLPVLLCK[Hpra′](Man9(3))VLNDGRRIVQ[Hpra′](Man9(3))SCELP[Hpra′](Man9(3))VRRSGSGSLGHHHHHHRDYKDDDDK
modifications: cysteine pairing not given here
B11: glycopeptide 10F12 (Fixed library, round 10) (peptide)
peptide: For-[Hpra′](Man9″)CYVTVIPA[Hpra′](Man9″)N[Hpra′](Man9″)PEARLGIVCH[Hpra′](Man9″)PGIRRGKALYGSGSLGHHHHHHRDYKDDDDK
modifications: not fully specified (bridges); cysteine pairing not given here
B12: glycopeptide 10F3 -C15S (peptide)
peptide: For-[Hpra′](Man9)DTLHLKQIGG[Hpra′](Man9)PNSITQQDVR[Hpra′](Man9)TSIPYTYTWPGSGSLGHHHHHHRDYKDDDDK
B13: glycopeptide 10F12-C2,21S (peptide)
peptide: For-[Hpra′](Man9″)SYVTVIPA[Hpra′](Man9″)N[Hpra′](Man9″)PEARLGIVSH[Hpra′](Man9″)PGIRRGKALYGSGSLGHHHHHHRDYKDDDDK

Molecular target: HIV broadly neutralizing antibody 2G12
Assay: BLI curve fit, 1 nM 2G12

Row | Binder | Req
1 | For-[Hpra′](Man9″)HPYNTSRTSA[Hpra′](Man9″)[Hpra′](Man9″)AALK[Hpra′](Man9″)QVTD[Hpra′](Man9″)YALALFHRILGSGSGC(maleimide‑biotin)A [biotinylated synthetic 10F2 glycopeptide 3] | 0.682

Molecular target: HIV broadly neutralizing antibody 2G12
Assay: BLI curve fit, 2 nM 2G12

Row | Binder | Req
2 | For-[Hpra′](Man9″)HPYNTSRTSA[Hpra′](Man9″)[Hpra′](Man9″)AALK[Hpra′](Man9″)QVTD[Hpra′](Man9″)YALALFHRILGSGSGC(maleimide‑biotin)A [biotinylated synthetic 10F2 glycopeptide 3] | 0.987

Molecular target: HIV broadly neutralizing antibody 2G12
Assay: BLI curve fit, 4 nM 2G12

Row | Binder | Req
3 | For-[Hpra′](Man9″)HPYNTSRTSA[Hpra′](Man9″)[Hpra′](Man9″)AALK[Hpra′](Man9″)QVTD[Hpra′](Man9″)YALALFHRILGSGSGC(maleimide‑biotin)A [biotinylated synthetic 10F2 glycopeptide 3] | 1.26

Molecular target: HIV broadly neutralizing antibody 2G12
Assay: BLI curve fit, 8 nM 2G12

Row | Binder | Req
4 | For-[Hpra′](Man9″)HPYNTSRTSA[Hpra′](Man9″)[Hpra′](Man9″)AALK[Hpra′](Man9″)QVTD[Hpra′](Man9″)YALALFHRILGSGSGC(maleimide‑biotin)A [biotinylated synthetic 10F2 glycopeptide 3] | 1.37

Molecular target: HIV broadly neutralizing antibody 2G12
Assay: BLI curve fit, 16 nM 2G12

Row | Binder | Req
5 | For-[Hpra′](Man9″)HPYNTSRTSA[Hpra′](Man9″)[Hpra′](Man9″)AALK[Hpra′](Man9″)QVTD[Hpra′](Man9″)YALALFHRILGSGSGC(maleimide‑biotin)A [biotinylated synthetic 10F2 glycopeptide 3] | 1.41

Molecular target: HIV broadly neutralizing antibody 2G12
Assay: BLI curve fit, 32 nM 2G12

Row | Binder | Req
6 | For-[Hpra′](Man9″)HPYNTSRTSA[Hpra′](Man9″)[Hpra′](Man9″)AALK[Hpra′](Man9″)QVTD[Hpra′](Man9″)YALALFHRILGSGSGC(maleimide‑biotin)A [biotinylated synthetic 10F2 glycopeptide 3] | 1.39

Molecular target: HIV broadly neutralizing antibody 2G12
Assay: BLI curve fit, 0.5 nM 2G12

Row | Binder | Req
7 | For-[Hpra′](Man9″)HPYNTSRTSA[Hpra′](Man9″)[Hpra′](Man9″)AALK[Hpra′](Man9″)QVTD[Hpra′](Man9″)YALALFHRILGSGSGC(maleimide‑biotin)A [biotinylated synthetic 10F2 glycopeptide 3] | 0.481

Molecular target: HIV broadly neutralizing antibody 2G12
Assay: BLI (BLItz), glycopeptide on streptavidin sensor, 2G12 in solution, global 1:1 fit

Row | Binder | Kd | koff | kon
8 | For-[Hpra′](Man9″)HPYNTSRTSA[Hpra′](Man9″)[Hpra′](Man9″)AALK[Hpra′](Man9″)QVTD[Hpra′](Man9″)YALALFHRILGSGSGC(maleimide‑biotin)A [biotinylated synthetic 10F2 glycopeptide 3] | 1.37 nM | 0.000151 s⁻¹ | 111000 M⁻¹ s⁻¹

Molecular target: HIV broadly neutralizing antibody 2G12
Assay: radiolabelled glycopeptide with 2G12, protein G bead capture (end tied by Table 4)

Row | Binder | Kd
9 | B1 | 0.5 to 0.6 nM
10 | B2 | 0.5 to 0.6 nM

Molecular target: HIV broadly neutralizing antibody 2G12
Assay: radiolabelled glycopeptide with 2G12, protein G bead capture; low end tied to 10F6 by Table 4

Row | Binder | Kd
11 | B1 | 0.5 to 5 nM

Molecular target: HIV broadly neutralizing antibody 2G12
Assay: radiolabelled glycopeptide with 2G12, protein G bead capture; high end tied to 10V8 by Table 4

Row | Binder | Kd
12 | B3 | 0.5 to 5 nM

Molecular target: HIV broadly neutralizing antibody 2G12
Assay: radiolabelled glycopeptide with 2G12 in solution, protein G bead capture, scintillation counting

Row | Binder | Fmax | Kd
13 | B1 | 87% | 0.54 nM
14 | B4 | 85% | 3.9 nM
15 | B5 | 86% | 3.1 nM
16 | B6 | 97% | 2.6 nM
17 | B7 | 100% | 3 nM
18 | B3 | 94% | 4.6 nM
19 | For-[Hpra′](Man9(3))VLNDGRRIVQ[Hpra′](Man9(3))SCELP[Hpra′](Man9(3))VRRSGSGSLGHHHHHHRDYKDDDDK [glycopeptide 10F5-Δ11] | 17% | > 200 nM
20 | B8 | 97% | 1.9 nM
21 | B2 | 86% | 0.6 nM
22 | B9 | 94% | 2.5 nM
23 | B10 | 93% | 0.97 nM
24 | For-[Hpra′](Man9(3))[Hpra′](Man9(3))AALK[Hpra′](Man9(3))QVTD[Hpra′](Man9(3))YALALFHRILGSGSLGHHHHHHRDYKDDDDK [glycopeptide 10F2-Δ11] | 70% | 0.89 nM
25 | For-[Hpra′](Man9(3))RSIPWYTYRWLPNGSGSLGHHHHHHRDYKDDDDK [glycopeptide 10V1-Δ9] | 20% | 7.5 nM
26 | B11 | 90% | 0.77 nM
27 | B12 | 63% | 2.91 nM
28 | For-[Hpra′](Man9(3))PNCITQQDVR[Hpra′](Man9(3))TSIPYTYTWPGSGSLGHHHHHHRDYKDDDDK [glycopeptide 10F3-Δ11] | 32% | 25 nM
29 | B13 | 90% | 186 nM
